Data from article PMC4449183, “Structural-Functional Analysis Reveals a Specific Domain Organization in Family GH20 Hexosaminidases” (PLoS ONE, 2015).

B2: Construct A (residues 40–528) of B. bifidum lacto-N-biosidase, GH20b-GH20-α (domain or fragment, Bifidobacterium bifidum, UniProt B3TLD6 40-528, looked up)
chain: AGYSATAPVNLTRPATVPSMDGWTDGTGAWTLGEGTRVVSSDALAARAQSLASELTKFTDVDIKAATGSATGKDISLTLDASKKAELGDEGFKLNIGSKGLEVIGATDIGVFYGTRSVSQMLRQGQLTLPAGTVATKPKYKERGATLCACQINISTDWIDRFLSDMADLRLNYVLLEMKLKPEEDNTKKAATWSYYTRDDVKKFVKKANNYGIDVIPEINSPGHMNVWLENYPEYQLADNSGRKDPNKLDISNPEAVKFYKTLIDEYDGVFTTKYWHMGADEYMIGTSFDNYSKLKTFAEKQYGAGATPNDAFTGFINDIDKYVKAKGKQLRIWNDGIVNTKNVSLNKDIVIEYWYGAGRKPQELVQDGYTLMNATQALYWSRSAQVYKVNAARLYNNNWNVGTFDGGRQIDKNYDKLTGAKVSIWPDSSYFQTENEVEKEIFDGMRFISQMTWSDSRPWATWNDMKADIDKIGYPLDIREYDYTPVDA
notes: Lacto-N-biosidase (LnbB), Bifidobacterium bifidum, residues 40-528 (GH20b and GH20 domains with the extra α-helix); synthetic codon-optimised gene in pET28a+ (NdeI/Bpu1102); Mainly dimeric in solution by gel filtration; theoretical mass 57 kDa; also called GH20b-GH20-α construct; source: E. coli BL21 (DE3) star, purified (Ni2+ HiTrap chelating column, Superdex 200)

Legend:
[1] = biological target: T1, Construct A (residues 40–528) of B. bifidum lacto-N-biosidase, GH20b-GH20-α (Bifidobacterium bifidum (strain DSM …, UniProt B3TLD6)); assay: SEC co-elution with SDS-PAGE, plus activity complementation assay
T1 chain: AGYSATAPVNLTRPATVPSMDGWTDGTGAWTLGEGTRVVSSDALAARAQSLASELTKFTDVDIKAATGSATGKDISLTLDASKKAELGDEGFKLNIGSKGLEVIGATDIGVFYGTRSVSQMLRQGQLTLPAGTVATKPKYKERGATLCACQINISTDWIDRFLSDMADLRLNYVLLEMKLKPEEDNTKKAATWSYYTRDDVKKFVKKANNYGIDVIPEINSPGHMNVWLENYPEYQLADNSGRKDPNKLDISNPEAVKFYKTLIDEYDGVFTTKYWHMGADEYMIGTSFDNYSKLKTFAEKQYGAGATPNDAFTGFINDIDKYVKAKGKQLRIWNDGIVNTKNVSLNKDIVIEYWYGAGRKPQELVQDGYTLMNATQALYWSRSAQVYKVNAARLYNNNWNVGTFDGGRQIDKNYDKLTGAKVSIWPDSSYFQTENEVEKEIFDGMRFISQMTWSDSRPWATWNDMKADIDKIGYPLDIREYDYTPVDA

[2] = biological target: B2; assay: cell-based or functional assay
[3] = biological target: the molecule itself; assay: SEC; single purified proteins on XK16/60 Superdex 200 in buffer A (Na2HPO4 20 mM, NaCl 150 mM, pH 7.5)

B1: Construct F (546–776) of B. bifidum lacto-N-biosidase, the single lectin domain (domain or fragment, Bifidobacterium bifidum, UniProt B3TLD6 546-776, looked up)
chain: LITTPDGYYQMKDTVSGKCLALFTGSKHLDVVTQVGARPELRNCADVSVGQDQRNTANERNTQKWQIRADKDGKYTISPALTQQRLAIATGNEQNIDLETHRPAAGTVAQFPADLVSDNALFTLTGHMGMSATVDSKTVNPASPSKITVKVRAASNANTGDVTVTPVVPEGWEIKPGSVSLKSIPAGKAAIAYFNVVNTTGTGDATVQFKLTNTKTGEELGTTSVALTGSL
binding result [1]: binds | hydrolytic activity on p-nitrophenyl β-lacto-N-bioside of 50 nM construct A with 25 nM-500 nM construct F (pH 4.5, 30°C), relative to the full length enzyme; levels off at a molar ratio of 1:6 [2]: 11%

B2
stoichiometry N [3]: 2
